Key:
P-selectin = P-selectin (UniProt P16109 P16109:42-771); test: specificity control, static adhesion normalised to L-Aptamer-MSC on L-selectin; settings: tags: P-selectin-Fc, coated on surface; chain copies: 2; label: 5'-biotin
[1] = target: T1, PDGF-BB (platelet-derived growth factor) (UniProt P01127 P01127:82-190); test: fluorescence quenching by flow cytometry on beads and MSCs, 10 nM PDGF; detection range several hundred pM to low nM on cells in PBS; best in PBS, then PBS with 0.9 mM CaCl2 and 0.5 mM MgCl2, then medium; settings: chain copies: 2 (inferred); label: 5'-FAM; complementary strand 5'-biotin, 3'-dabcyl
Experimental: FIGS. 11C-11D are bar graphs depicting the performance of sensors 1 and 2 immobilized on streptavidin beads for detection of PDGF in PBS (11C) and PBS with 0.9 mM CaCl₂ and 0.5 mM MgCl₂ (11D) were studied by flow cytometry. Upon adding PDGF (10 nM), the FAM green signal is quenched. Sensor 2 functions better than sensor 1 in PBS with and without Ca/Mg.
A PDGF aptamer sensor was synthesized with FAM at the 5′ end of the aptamer and a quencher, dabcyl, at the 3′ end of the complementary strand, with a biotin molecule attached at the other end (FIG. 11A). Upon binding to the target PDGF, the aptamer undergoes a conformational change which brings FAM and dabcyl closer to each other and the fluorescence of FAM is quenched. One base pair C-G of the aptamer sensor was eliminated by changing a C base to A base (FIG. 11B). Therefore, sensor 2 has less nonspecific folding and better performance in the presence of divalent metal ions than sensor 1. Sensor 1 and 2 were immobilized on streptavidin beads, and their performances in PBS (FIG. 11C) and PBS with Ca/Mg (FIG. 11D) were studied by flow cytometry and microscopy (FIGS. 12A-12B). Upon adding PDGF (10 nM), the FAM green signal was quenched. Sensor 2 functioned better than sensor 1 in PBS with and without Ca/Mg.

[2] = target: T1, PDGF-BB (platelet-derived growth factor); test: Cy3 quenched and Cy5 enhanced with 10 nM PDGF; solution in PBS and on MSCs in PBS, PBS with Ca/Mg and medium; settings: chain copies: 2 (inferred); label: 5'-Cy5; complementary strand 5'-biotin, internal Cy3
L-selectin [3] = target: T2, L-selectin (UniProt P14151 P14151:39-332); test: static adhesion normalised to L-Aptamer-MSC; PBS-MSC background 6.4±1.78; settings: tags: coated on surface; label: 3'-biotin
T2 sequence: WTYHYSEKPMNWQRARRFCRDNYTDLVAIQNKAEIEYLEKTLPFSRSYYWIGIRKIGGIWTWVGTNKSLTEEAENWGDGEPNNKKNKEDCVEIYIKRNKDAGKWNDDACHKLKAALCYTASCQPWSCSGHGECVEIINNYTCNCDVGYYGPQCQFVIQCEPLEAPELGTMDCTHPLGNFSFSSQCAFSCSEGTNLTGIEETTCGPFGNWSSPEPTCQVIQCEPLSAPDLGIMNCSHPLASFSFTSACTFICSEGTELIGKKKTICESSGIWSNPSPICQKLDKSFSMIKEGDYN
Experimental: After we confirmed the successful conjugation and the availability of aptamers on the MSC surface, we investigated the interactions between L-Aptamer-MSCs and L-selectin coated surfaces under both static and flow conditions. For the static adhesion assay, aptamer modified and unmodified MSCs were incubated with L-selectin coated surfaces for 10 minutes, and unbound cells were then removed through rinsing.

L-selectin [4] = target: T2, L-selectin; test: specificity control, P-Aptamer-MSC on L-selectin; settings: tags: coated on surface; label: 5'-biotin

T1 sequence (P01127 82-190, one chain of several): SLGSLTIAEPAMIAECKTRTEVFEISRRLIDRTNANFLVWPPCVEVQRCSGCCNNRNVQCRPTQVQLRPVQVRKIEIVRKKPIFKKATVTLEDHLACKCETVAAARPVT
P-selectin, sequence (P16109 42-771, one chain of several): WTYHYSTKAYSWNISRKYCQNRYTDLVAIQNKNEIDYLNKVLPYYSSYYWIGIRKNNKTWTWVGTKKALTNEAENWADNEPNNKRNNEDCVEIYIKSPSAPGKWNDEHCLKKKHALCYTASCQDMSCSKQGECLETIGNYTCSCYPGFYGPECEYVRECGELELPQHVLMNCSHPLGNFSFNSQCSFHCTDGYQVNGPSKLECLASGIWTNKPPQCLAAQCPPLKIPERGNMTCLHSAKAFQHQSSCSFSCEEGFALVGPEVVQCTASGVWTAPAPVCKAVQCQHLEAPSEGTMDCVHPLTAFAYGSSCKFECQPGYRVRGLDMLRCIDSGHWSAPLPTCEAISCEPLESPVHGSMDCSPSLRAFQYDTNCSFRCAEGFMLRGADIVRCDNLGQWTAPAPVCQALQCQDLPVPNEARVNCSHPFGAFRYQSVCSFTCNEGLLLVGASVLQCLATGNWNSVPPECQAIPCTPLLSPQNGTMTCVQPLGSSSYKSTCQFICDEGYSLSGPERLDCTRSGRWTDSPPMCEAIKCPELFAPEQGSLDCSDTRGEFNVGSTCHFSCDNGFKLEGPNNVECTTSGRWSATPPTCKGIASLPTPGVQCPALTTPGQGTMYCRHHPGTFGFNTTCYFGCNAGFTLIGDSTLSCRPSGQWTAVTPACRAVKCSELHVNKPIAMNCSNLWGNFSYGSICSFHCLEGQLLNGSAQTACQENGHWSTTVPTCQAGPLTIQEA

TAGCCAAGGTAACCAGTACAAGGTGCTAAACGTAATGGCTTCGGCTTAC (ssDNA, 3' inverted T) [L-selectin aptamer]
binding result (P-selectin): no binding

B1: PDGF quench sensor 2 (structured_DNA)
DNA 1: AAGGCTACGGCACGTAGAGCATCACCATGATCCTGTGTGGTCTATGTCGTCGTTCG
DNA 2: CGAACGACGACATAGACCACA
binding result [1]: binds

B2: PDGF FRET sensor 5 (structured_DNA)
DNA 1: AAGGCTACGGCACGTAGAGCATCACCATGATCCTGTGTGGTCTGTGTCG
DNA 2: CGACACAGACCACA
binding result [2]: binds

GATGTAGGGACAGTCAAATGGAGTGGTTCAACCGCCCATCTTCAACAAT (ssDNA) [scrambled sequence control DNA]
binding result (L-selectin [3]): no binding

CUCAACGAGCCAGGAACAUCGACGUCAGCAAACGCGAG (ssRNA, 2'-F on C and U) [P-selectin aptamer]
binding result (L-selectin [4]): no binding
